Results as given in patent US20110287512.

Legend:
[1] = test system: ZFP7263 linker TQRPQIPPKP center linker F2-F3 TGSQKP replaced by TQRPQIPPKP (artificial); test: ELONA; details: normalized ELISA score
[2] = test system: ZFP7263 linker TPLCQRPMKQKP center linker F2-F3 TGSQKP replaced by TPLCQRPMKQKP (artificial); test: ELONA; details: normalized ELISA score
[3] = test system: ZFP7263 linker TGGGGSQKP center linker F2-F3 TGSQKP replaced by TGGGGSQKP (artificial); test: ELONA; details: normalized ELISA score
[4] = test system: ZFP7263 linker LRQKDERP center linker F2-F3 TGSQKP replaced by LRQKDERP (artificial); test: ELONA; details: normalized ELISA score
[5] = test system: ZFP7263 linker TPNRCPPTKP center linker F2-F3 TGSQKP replaced by TPNRCPPTKP (artificial); test: ELONA; details: normalized ELISA score
[6] = test system: ZFP7263 linker TGEGGKP center linker F2-F3 TGSQKP replaced by TGEGGKP (artificial); test: ELONA; details: normalized ELISA score
[7] = test system: ZFP7263 linker TPRPPIPKP center linker F2-F3 TGSQKP replaced by TPRPPIPKP (artificial); test: ELONA; details: normalized ELISA score
[8] = test system: ZFP7263 (host, center linker TGSQKP) (artificial); test: ELONA; details: normalized ELISA score
[9] = test system: ZFP7263 linker TYPRPLLAKP center linker F2-F3 TGSQKP replaced by TYPRPLLAKP (artificial); test: ELONA; details: normalized ELISA score
[10] = test system: ZFP7264 linker TGEGGKP (artificial)
[11] = test system: ZFP7264 linker TGLPKPKP (artificial)
[12] = test system: ZFP7264 linker TKHGTPKHREDKP (artificial)
[13] = test system: ZFP7264 linker TGGGGSQKP (artificial)
[14] = test system: ZFP7264 linker TLPPCFRPKP (artificial)
[15] = test system: ZFP7264 linker TSRPRPKP (artificial)
[16] = test system: ZFP7264 linker LRQKDERP (artificial)
[17] = test system: ZFP7264 linker TLPLPRPKP (artificial)
[18] = test system: ZFP7264 linker 1e center linker F2-F3 TGSQKP replaced by TVPRPTPPKP (artificial); test: ELONA; details: normalized ELISA score
[19] = test system: ZFP7264 (host, center linker TGSQKP) (artificial); test: ELONA; details: normalized ELISA score
[20] = test system: ZFN7263 linker TGGGGSQKP (artificial); test: cell_activity; details: yeast, paired with 7264 ZFN
[21] = test system: ZFN7263 linker TPRPPIPKP (artificial); test: cell_activity; details: yeast, paired with 7264 ZFN
[22] = test system: ZFN7263 linker TPLCQRPMKQKP (artificial); test: cell_activity; details: yeast, paired with 7264 ZFN
[23] = test system: ZFN7263 linker TYPRPLLAKP (artificial); test: cell_activity; details: yeast, paired with 7264 ZFN
[24] = test system: ZFN7263 linker TQRPQIPPKP (artificial); test: cell_activity; details: yeast, paired with 7264 ZFN
[25] = test system: ZFN7263 linker TPNRCPPTKP (artificial); test: cell_activity; details: yeast, paired with 7264 ZFN
[26] = test system: ZFN7263 (host) (artificial); test: cell_activity; details: yeast, paired with 7264 ZFN
[27] = test system: ZFP7263 linker TGEGGKP (artificial)
[28] = test system: ZFP7263 linker TPLCQRPMKQKP (artificial)
[29] = test system: ZFP7263 linker TPRPPIPKP (artificial)
[30] = test system: ZFP7263 linker LRQKDERP (artificial)
[31] = test system: ZFP7263 (host, center linker TGSQKP) (artificial)
[32] = test system: ZFP7263 linker TGGGGSQKP (artificial)
[33] = test system: ZFP7263 linker TQRPQIPPKP (artificial)
[34] = test system: ZFP7263 linker TPNRCPPTKP (artificial)
[35] = test system: ZFN7264 linker TGGGGSQKP (artificial); test: cell_activity; details: yeast, paired with 7263 ZFN
[36] = test system: ZFN7264 linker TGLPKPKP (artificial); test: cell_activity; details: yeast, paired with 7263 ZFN
[37] = test system: ZFN7264 linker TSRPRPKP (artificial); test: cell_activity; details: yeast, paired with 7263 ZFN
[38] = test system: ZFN7264 linker 1e (artificial); test: cell_activity; details: yeast, paired with 7263 ZFN
[39] = test system: ZFN7264 (host, center linker TGSQKP) (synthetic); test: cell_activity; details: yeast, partner ZFN7263; host on 0-bp gap = 1.00; host data same as Table 9

## TTAGCCACTCTGTTGGAAGTGTATC (double strand) [7263 target gap T]
[1]
  binding signal: 3.05
[2]
  binding signal: 4
[3]
  binding signal: 0.39
[4]
  binding signal: 0.13
[5]
  binding signal: 3.16
[6]
  binding signal: 0.04
[7]
  binding signal: 2.09
[8]
  binding signal: 0.02
[9]
  binding signal: 3.97

## TTAGTTAAAGCGTTGCTCCGAATATC (double strand) [7264 target gap TT]
[10]
  binding signal (normalized ELISA): 0.03
[11]
  binding signal (normalized ELISA): 0.03
[12]
  binding signal (normalized ELISA): 0
[13]
  binding signal (normalized ELISA): 0.03
[14]
  binding signal (normalized ELISA): 0.06
[15]
  binding signal (normalized ELISA): 0.03
[16]
  binding signal (normalized ELISA): 0.02
[17]
  binding signal (normalized ELISA): 0.04
[18]
  binding signal: 0.05
[19]
  binding signal: 0

## ACTCTGGTGGAAG (double strand) [7263 yeast half-site gap G]
[20]
  activity (normalized MEL-1): 0.6
[21]
  activity (normalized MEL-1): 2.18
[22]
  activity (normalized MEL-1): 1.52
[23]
  activity (normalized MEL-1): 2.21
[24]
  activity (normalized MEL-1): 2.18
[25]
  activity (normalized MEL-1): 2.85
[26]
  activity (normalized MEL-1): 0.09

## ACTCTGACTGGAAG (double strand) [7263 yeast half-site gap AC]
[20]
  activity (normalized MEL-1): 0.04
[21]
  activity (normalized MEL-1): 0.05
[22]; value as printed
  activity (normalized MEL-1): 1.05
[23]
  activity (normalized MEL-1): 0.1
[24]
  activity (normalized MEL-1): 0.03
[25]
  activity (normalized MEL-1): 0.04
[26]
  activity (normalized MEL-1): 0.09

## ACTCTGCTGGAAG (double strand) [7263 yeast half-site gap C]
[20]
  activity (normalized MEL-1): 0.04
[21]
  activity (normalized MEL-1): 1.41
[22]
  activity (normalized MEL-1): 0.3
[23]
  activity (normalized MEL-1): 0.37
[24]
  activity (normalized MEL-1): 0.43
[25]
  activity (normalized MEL-1): 0.34
[26]
  activity (normalized MEL-1): 0.05

## TTAGCCACTCTGGTGGAAGTGTATC (double strand) [7263 target gap G]
[27]
  binding signal (normalized ELISA): 0.05
[28]
  binding signal (normalized ELISA): 3.44
[29]
  binding signal (normalized ELISA): 1.85
[30]
  binding signal (normalized ELISA): 0.18
[31]
  binding signal (normalized ELISA): 0.03
[32]
  binding signal (normalized ELISA): 0.41
[33]
  binding signal (normalized ELISA): 2.86
[34]
  binding signal (normalized ELISA): 2.62
[9]
  binding signal: 3.88

## AAAGCGCGCTCCG (double strand) [7264 yeast half-site gap C]
[35]
  activity (normalized MEL-1): 0.07
[36]
  activity (normalized MEL-1): 0.07
[37]
  activity (normalized MEL-1): 0.08
[38]
  activity (normalized MEL-1): 0.14
[39]
  activity (normalized MEL-1): 0.05

## AAAGCGTTGCTCCG (double strand) [7264 yeast half-site gap TT]
[35]
  activity (normalized MEL-1): 0.12
[36]
  activity (normalized MEL-1): 0.11
[37]
  activity (normalized MEL-1): 0.03
[38]
  activity (normalized MEL-1): 0.12
[39]
  activity (normalized MEL-1): 0.09

## ACTCTGATGGAAG (double strand) [7263 yeast half-site gap A]
[20]
  activity (normalized MEL-1): 0.14
[21]
  activity (normalized MEL-1): 1.3
[22]
  activity (normalized MEL-1): 0.97
[23]
  activity (normalized MEL-1): 0.69
[24]
  activity (normalized MEL-1): 1.05
[25]
  activity (normalized MEL-1): 1.3
[26]
  activity (normalized MEL-1): 0.05
